The target of data set [1] is MET receptor tyrosine kinase, wild type, full length, P08581.
Data set [2] deals with T1, Recombinant human Smad4 (NM 005359) with C-terminal MYC/DDK tag (human, UniProt Q13485 1-552).
T1 construct: Bought from OriGene; also called DDK-tagged recombinant Smad4; DDK-tagged Smad4; not shown: C-terminal MYC/DDK tag
T1 sequence (looked up): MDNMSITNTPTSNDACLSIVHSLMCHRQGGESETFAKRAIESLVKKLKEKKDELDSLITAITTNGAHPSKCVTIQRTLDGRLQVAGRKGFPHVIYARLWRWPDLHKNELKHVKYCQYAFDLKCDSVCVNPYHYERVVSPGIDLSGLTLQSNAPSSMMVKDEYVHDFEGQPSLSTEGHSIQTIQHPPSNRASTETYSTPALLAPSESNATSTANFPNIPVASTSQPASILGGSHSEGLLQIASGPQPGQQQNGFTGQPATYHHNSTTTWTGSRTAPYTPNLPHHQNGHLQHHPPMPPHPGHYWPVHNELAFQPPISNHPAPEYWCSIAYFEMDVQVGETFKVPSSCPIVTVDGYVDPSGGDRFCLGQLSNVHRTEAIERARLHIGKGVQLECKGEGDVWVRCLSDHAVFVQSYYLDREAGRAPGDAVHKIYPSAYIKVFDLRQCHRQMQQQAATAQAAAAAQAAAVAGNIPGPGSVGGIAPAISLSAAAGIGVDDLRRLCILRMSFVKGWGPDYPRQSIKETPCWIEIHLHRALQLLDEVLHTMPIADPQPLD
Description: peptide-protein interaction assay: capture with C12 antibody and protein G sepharose, anti-DDK immunoblot. (A western blot detects proteins with antibodies after separation by electrophoresis.)

Data set [3] has as its target T2, Recombinant human Smad2 (NM 005901) with C-terminal MYC/DDK tag (human, UniProt Q15796 1-467).
T2 construct: Bought from OriGene; also called DDK-tagged recombinant Smad2; DDK-tagged Smad2; not shown: C-terminal MYC/DDK tag
Description: peptide-protein interaction assay: M10 and DDK-tagged Smad2 (1 µg each), capture with C12 antibody and protein G sepharose, anti-DDK immunoblot.

T2 sequence (Q15796 whole entry): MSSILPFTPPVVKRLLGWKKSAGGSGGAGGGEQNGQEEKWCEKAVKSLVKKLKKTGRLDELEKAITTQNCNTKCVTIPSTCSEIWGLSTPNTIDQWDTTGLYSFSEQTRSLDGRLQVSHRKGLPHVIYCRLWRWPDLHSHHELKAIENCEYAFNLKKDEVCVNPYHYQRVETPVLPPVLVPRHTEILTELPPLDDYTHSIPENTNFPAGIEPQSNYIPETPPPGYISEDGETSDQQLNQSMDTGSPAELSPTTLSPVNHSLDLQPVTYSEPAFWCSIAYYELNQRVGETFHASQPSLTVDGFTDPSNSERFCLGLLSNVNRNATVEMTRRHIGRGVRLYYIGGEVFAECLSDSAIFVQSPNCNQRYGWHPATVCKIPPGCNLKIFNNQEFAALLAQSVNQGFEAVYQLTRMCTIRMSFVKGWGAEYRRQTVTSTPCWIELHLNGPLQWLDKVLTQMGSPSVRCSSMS
MET receptor tyrosine kinase, wild type, full length, P08581, sequence (P08581 whole entry, looked up): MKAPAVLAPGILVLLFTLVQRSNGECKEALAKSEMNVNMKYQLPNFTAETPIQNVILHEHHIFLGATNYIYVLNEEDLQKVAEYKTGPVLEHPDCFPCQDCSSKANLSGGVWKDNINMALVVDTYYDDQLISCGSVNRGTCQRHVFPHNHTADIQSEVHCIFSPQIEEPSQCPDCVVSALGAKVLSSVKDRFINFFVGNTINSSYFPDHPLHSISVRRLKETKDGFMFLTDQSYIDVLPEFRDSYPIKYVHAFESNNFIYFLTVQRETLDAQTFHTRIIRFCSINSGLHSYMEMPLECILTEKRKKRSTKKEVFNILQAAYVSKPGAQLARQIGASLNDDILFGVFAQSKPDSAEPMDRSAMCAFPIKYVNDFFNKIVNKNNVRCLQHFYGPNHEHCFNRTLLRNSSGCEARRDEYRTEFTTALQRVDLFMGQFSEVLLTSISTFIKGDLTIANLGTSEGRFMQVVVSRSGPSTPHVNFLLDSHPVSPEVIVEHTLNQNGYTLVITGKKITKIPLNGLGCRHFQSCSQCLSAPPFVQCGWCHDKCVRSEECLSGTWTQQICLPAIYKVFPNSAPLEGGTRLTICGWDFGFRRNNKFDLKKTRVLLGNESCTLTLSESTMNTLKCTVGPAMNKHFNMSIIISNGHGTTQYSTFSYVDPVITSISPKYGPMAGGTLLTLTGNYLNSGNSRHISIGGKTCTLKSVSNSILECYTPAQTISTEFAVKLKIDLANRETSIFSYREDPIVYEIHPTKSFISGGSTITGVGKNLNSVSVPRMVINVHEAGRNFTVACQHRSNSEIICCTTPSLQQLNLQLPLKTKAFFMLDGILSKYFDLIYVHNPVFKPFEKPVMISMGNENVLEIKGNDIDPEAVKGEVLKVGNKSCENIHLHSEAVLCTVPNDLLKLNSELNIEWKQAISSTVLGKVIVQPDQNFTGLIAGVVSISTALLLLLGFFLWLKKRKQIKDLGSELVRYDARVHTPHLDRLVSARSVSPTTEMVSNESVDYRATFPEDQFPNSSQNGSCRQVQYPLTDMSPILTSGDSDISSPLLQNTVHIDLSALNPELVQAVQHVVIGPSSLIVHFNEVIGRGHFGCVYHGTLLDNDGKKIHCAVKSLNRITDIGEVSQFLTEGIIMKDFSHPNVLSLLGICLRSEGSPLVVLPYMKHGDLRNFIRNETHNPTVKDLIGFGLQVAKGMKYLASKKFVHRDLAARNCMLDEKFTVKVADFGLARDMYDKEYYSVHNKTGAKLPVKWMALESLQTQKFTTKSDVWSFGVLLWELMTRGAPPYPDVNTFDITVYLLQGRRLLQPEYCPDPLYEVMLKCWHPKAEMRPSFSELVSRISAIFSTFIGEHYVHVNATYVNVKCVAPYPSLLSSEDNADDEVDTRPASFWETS

B1: caspase-3 (activated, endogenous in lung fibroblasts and alveolar epithelial cells) (protein)
chain: SGISLDNSYKMDYPEMGLCIIINNKNFHKSTGMTSRSGTDVDAANLRETFRNLKYEVRNKNDLTREEIVELMRDVSKEDHSKRSSFVCVLLSHGEEGIIFGTNGPVDLKKITNFFRGDRCRSLTGKPKLFIIQACRGTELDCGIETDSGVDDDMACHKIPVEADFLYAYSTAPGYYSWRNSKDGSWFIQSLCAMLKQYADKLEFMHILTRVNRKVATEFESFSFDATFHAKKQIPCIVSMLTKELYFYH
Regarding B1, the “cleavage of the MET C-terminus (loss of C12 signal in Western blot)” value in data set [1] is “Cisplatin-induced caspase-3 cleavage was associated with a loss of detectable MET protein in Western blots with the C12 antibody”.

B2: M10 peptide (TRPASFWETS), synthetic (peptide)
peptide: TRPASFWETS
notes: Synthetic peptide from GenScript; A 5,6-TAMRA conjugate (at the N-terminus) was used only for localisation; also called 2 kD C-terminal fragment (M10) of the MET receptor; last 10 amino acids of MET
Consider B2, for which the binding result in data set [2] was “no binding (tested: 1 µg each)”; in data set [3], “binds”.

These data come from patent US20180215802A1 (MUSC FOUNDATION FOR RESEARCH DEVELOPMENT, published 2018).
